Reference: PMC2809104, “Crystal Structure and Substrate Specificity of Drosophila 3,4-Dihydroxyphenylalanine Decarboxylase” (PLoS ONE, 2010)
Each block holds one molecule with its values, some of them ahead of it.

Columns and labels:
drDDC [1] = molecular target: T1, drDDC (Drosophila melanogaster, UniProt P05031, T117A/DEL476-510, form not given); assay: HPLC-UV of decarboxylated product, Michaelis-Menten fit; format: biochemical; conditions: 38°C, 40 µM PLP, 150 mM potassium phosphate pH 7.0
T1 construct: gene Ddc; homodimer, PLP holoenzyme; residues 1-475
T1 sequence (P05031 1-475 isoform P05031-2 T82A): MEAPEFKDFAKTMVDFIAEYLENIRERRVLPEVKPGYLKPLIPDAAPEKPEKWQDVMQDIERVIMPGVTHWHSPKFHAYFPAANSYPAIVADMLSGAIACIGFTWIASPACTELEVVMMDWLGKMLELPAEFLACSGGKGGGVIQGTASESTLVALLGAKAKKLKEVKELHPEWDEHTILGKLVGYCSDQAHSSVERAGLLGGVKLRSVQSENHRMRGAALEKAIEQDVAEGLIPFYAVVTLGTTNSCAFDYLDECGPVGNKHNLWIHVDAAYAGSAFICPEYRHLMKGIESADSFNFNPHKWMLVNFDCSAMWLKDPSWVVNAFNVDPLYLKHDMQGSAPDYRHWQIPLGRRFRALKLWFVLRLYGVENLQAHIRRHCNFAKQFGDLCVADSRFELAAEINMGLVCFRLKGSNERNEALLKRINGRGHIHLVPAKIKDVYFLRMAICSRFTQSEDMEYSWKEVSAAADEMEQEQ
Text: (§1) HPLC-UV of decarboxylated product, Michaelis-Menten fit on drDDC

drDDC [2] = molecular target: T2, drDDC (Drosophila melanogaster, UniProt P05031); assay: X-ray crystal structure, […] Å; format: binding; conditions: covalent internal aldimine (Schiff base) with K302
T2 construct: gene Ddc; homodimer, PLP holoenzyme; residues 1-475
T2 sequence (P05031 36-510): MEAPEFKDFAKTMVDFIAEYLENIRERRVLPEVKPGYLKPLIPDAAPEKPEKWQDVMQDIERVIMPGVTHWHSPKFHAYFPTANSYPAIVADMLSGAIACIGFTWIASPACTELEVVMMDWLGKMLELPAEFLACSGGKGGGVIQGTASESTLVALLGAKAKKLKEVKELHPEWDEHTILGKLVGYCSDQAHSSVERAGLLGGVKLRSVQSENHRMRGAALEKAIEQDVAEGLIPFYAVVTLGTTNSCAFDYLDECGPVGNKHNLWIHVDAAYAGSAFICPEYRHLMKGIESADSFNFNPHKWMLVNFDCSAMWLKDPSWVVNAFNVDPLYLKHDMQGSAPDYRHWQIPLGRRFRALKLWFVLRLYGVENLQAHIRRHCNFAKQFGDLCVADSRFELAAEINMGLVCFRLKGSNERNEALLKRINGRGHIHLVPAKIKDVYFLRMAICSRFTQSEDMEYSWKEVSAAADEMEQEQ

drDDC [3] = molecular target: T3, drDDC (Drosophila melanogaster, UniProt P05031, H227W/DEL476-510, form not given); assay: HPLC-UV of decarboxylated product, Michaelis-Menten fit; format: biochemical; conditions: 38°C, 40 µM PLP, 150 mM potassium phosphate pH 7.0
T3 construct: gene Ddc; homodimer, PLP holoenzyme; residues 1-475
T3 sequence (P05031 1-475 isoform P05031-2 H192W): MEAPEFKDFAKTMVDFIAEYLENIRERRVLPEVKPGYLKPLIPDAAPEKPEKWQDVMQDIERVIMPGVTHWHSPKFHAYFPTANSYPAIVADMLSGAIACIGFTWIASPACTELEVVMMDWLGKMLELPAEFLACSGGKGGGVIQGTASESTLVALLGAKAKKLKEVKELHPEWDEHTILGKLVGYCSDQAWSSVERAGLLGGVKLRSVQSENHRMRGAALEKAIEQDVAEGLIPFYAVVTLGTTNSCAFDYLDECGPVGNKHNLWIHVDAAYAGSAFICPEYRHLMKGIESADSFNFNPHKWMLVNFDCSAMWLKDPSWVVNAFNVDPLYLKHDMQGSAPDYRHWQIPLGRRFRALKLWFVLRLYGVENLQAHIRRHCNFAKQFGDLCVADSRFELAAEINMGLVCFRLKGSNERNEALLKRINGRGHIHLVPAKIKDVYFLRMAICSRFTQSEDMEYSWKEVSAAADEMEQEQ
Text: as §1

drDDC [4] = molecular target: T4, drDDC (Drosophila melanogaster, UniProt P05031, T117S/DEL476-510, form not given); assay: as above; format: biochemical; conditions: 38°C, 40 µM PLP, 150 mM potassium phosphate pH 7.0
T4 construct: gene Ddc; homodimer, PLP holoenzyme; residues 1-475
T4 sequence (P05031 1-475 isoform P05031-2 T82S): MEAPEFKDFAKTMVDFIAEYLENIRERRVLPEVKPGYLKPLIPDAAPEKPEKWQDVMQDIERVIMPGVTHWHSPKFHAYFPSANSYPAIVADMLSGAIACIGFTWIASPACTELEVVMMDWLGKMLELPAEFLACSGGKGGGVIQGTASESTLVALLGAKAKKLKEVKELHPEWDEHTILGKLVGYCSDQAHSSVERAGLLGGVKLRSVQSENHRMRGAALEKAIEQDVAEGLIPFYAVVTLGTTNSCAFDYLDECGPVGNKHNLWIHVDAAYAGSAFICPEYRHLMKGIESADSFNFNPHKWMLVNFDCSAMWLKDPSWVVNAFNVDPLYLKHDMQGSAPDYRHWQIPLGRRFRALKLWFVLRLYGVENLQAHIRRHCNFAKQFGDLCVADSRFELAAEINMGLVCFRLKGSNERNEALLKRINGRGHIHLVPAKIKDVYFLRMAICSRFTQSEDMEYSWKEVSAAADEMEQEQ
Text: as §1

[5] = substrate: NC(Cc1cccc(O)c1)C(=O)O; assay: as above; format: biochemical, Drosophila melanogaster; conditions: 38°C, 40 µM PLP, 150 mM potassium phosphate pH 7.0, racemic DL substrate
Text: as §1

[6] = substrate: NC(Cc1ccccc1O)C(=O)O; assay: as above; format: biochemical, Drosophila melanogaster; conditions: 38°C, 40 µM PLP, 150 mM potassium phosphate pH 7.0, racemic DL substrate
Text: as §1

[7] = substrate: N[C@@H](Cc1c[nH]c2ccc(O)cc12)C(=O)O; assay: as above; format: biochemical, Drosophila melanogaster; conditions: 38°C, 40 µM PLP, 150 mM potassium phosphate pH 7.0
Text: as §1

[8] = substrate: N[C@@H](Cc1ccc(O)c(O)c1)C(=O)O; assay: as above; format: biochemical, Drosophila melanogaster; conditions: 38°C, 40 µM PLP, 150 mM potassium phosphate pH 7.0
Text: as §1

[9] = molecular target: the molecule itself; assay: crystal structure; hanging-drop vapor diffusion; 15% PEG 4000, 20% glycerol, 200 mM CaCl2, 100 mM cacodylic acid pH 6.5; molecular replacement with pig DDC (1js3); two molecules in the asymmetric unit

Km (drDDC [1]; racemic DL substrate): 4.9 ± 1.5 mM
Molecule: NC(Cc1ccccc1O)C(=O)O (racemic) [o-tyr, DL-o-tyrosine]

Molecule: Cc1ncc(COP(=O)(O)O)c(C=O)c1O [PLP]
X-ray crystal structure, 1.75 Å (drDDC [2]): The cofactor PLP binds to K302 through a Schiff base linkage

Km (drDDC [3]; racemic DL substrate): 2.6 ± 1.1 mM
Km (drDDC [1]; racemic DL substrate): 13.3 ± 4.5 mM
Km (drDDC [4]; racemic DL substrate): 11.4 ± 2.2 mM
Molecule: NC(Cc1cccc(O)c1)C(=O)O (racemic) [m-tyr, DL-m-tyrosine]

Km (drDDC [3]): 1.1 ± 0.1 mM
Km (drDDC [1]): 3.5 ± 0.5 mM
Km (drDDC [4]): 0.6 ± 0.1 mM
Molecule: N[C@@H](Cc1c[nH]c2ccc(O)cc12)C(=O)O [5-HTP]

Km (drDDC [3]): 4.4 ± 0.8 mM
Km (drDDC [1]): 5.6 ± 1 mM
Km (drDDC [4]): 4.5 ± 0.9 mM
Molecule: N[C@@H](Cc1ccc(O)c(O)c1)C(=O)O [DOPA]

B1: drDDC (Drosophila melanogaster) (protein)
chain: MEAPEFKDFAKTMVDFIAEYLENIRERRVLPEVKPGYLKPLIPDAAPEKPEKWQDVMQDIERVIMPGVTHWHSPKFHAYFPTANSYPAIVADMLSGAIACIGFTWIASPACTELEVVMMDWLGKMLELPAEFLACSGGKGGGVIQGTASESTLVALLGAKAKKLKEVKELHPEWDEHTILGKLVGYCSDQAHSSVERAGLLGGVKLRSVQSENHRMRGAALEKAIEQDVAEGLIPFYAVVTLGTTNSCAFDYLDECGPVGNKHNLWIHVDAAYAGSAFICPEYRHLMKGIESADSFNFNPHKWMLVNFDCSAMWLKDPSWVVNAFNVDPLYLKHDMQGSAPDYRHWQIPLGRRFRALKLWFVLRLYGVENLQAHIRRHCNFAKQFGDLCVADSRFELAAEINMGLVCFRLKGSNERNEALLKRINGRGHIHLVPAKIKDVYFLRMAICSRFTQSEDMEYSWKEVSAAADEMEQEQ
notes: homodimer, PLP holoenzyme; residues 1-475
Km [5]: 2.3 ± 1.2 mM
kcat [5]: 3.56 ± 0.673 s⁻¹
kcat/Km [5]: 1550 M⁻¹ s⁻¹
Km [6]: 1.1 ± 0.3 mM
kcat [6]: 1.85 ± 0.133 s⁻¹
kcat/Km [6]: 1680 M⁻¹ s⁻¹
Km [7]: 0.4 ± 0.04 mM
kcat [7]: 1.05 ± 0.0233 s⁻¹
kcat/Km [7]: 2620 M⁻¹ s⁻¹
Km [8]: 2.2 ± 0.3 mM
kcat [8]: 4.7 ± 0.0267 s⁻¹
kcat/Km [8]: 2140 M⁻¹ s⁻¹

B2: Drosophila melanogaster 3,4-dihydroxyphenylalanine decarboxylase, wild type (enzyme, UniProt P05031-2 1-475, looked up)
chain: MEAPEFKDFAKTMVDFIAEYLENIRERRVLPEVKPGYLKPLIPDAAPEKPEKWQDVMQDIERVIMPGVTHWHSPKFHAYFPTANSYPAIVADMLSGAIACIGFTWIASPACTELEVVMMDWLGKMLELPAEFLACSGGKGGGVIQGTASESTLVALLGAKAKKLKEVKELHPEWDEHTILGKLVGYCSDQAHSSVERAGLLGGVKLRSVQSENHRMRGAALEKAIEQDVAEGLIPFYAVVTLGTTNSCAFDYLDECGPVGNKHNLWIHVDAAYAGSAFICPEYRHLMKGIESADSFNFNPHKWMLVNFDCSAMWLKDPSWVVNAFNVDPLYLKHDMQGSAPDYRHWQIPLGRRFRALKLWFVLRLYGVENLQAHIRRHCNFAKQFGDLCVADSRFELAAEINMGLVCFRLKGSNERNEALLKRINGRGHIHLVPAKIKDVYFLRMAICSRFTQSEDMEYSWKEVSAAADEMEQEQ
modifications: lysine-pyridoxal-5-phosphate (LLP): PLP bound to K302 through a Schiff base (internal aldimine)
notes: the forward primer begins at ATG GAG GCG CCG GAG TTC (MEAPEF); also called drDDC; drDDC WT; source: Escherichia coli DE3, purified (chitin beads, DEAE-Sepharose, Mono-Q, gel filtration)
stoichiometry N [9]: 2
